Values of other authors, collected in paper PMC3184957, “Improving a Natural CaMKII Inhibitor by Random and Rational Design” (PLoS ONE, 2011).

Target: T1, CaMKIIα (Rattus norvegicus, UniProt P11275)
T1 construct: made in house; host or cells: baculovirus/Sf9 (CaMKII); bacteria (CaM)
Details: background statement of the abstract, no reference given; read-out: IC50 of CaMKII inhibition by CaM-KIIN
Method: Background CaM-KIIN has evolved to inhibit stimulated and autonomous activity of the Ca^2+/calmodulin (CaM)-dependent protein kinase II (CaMKII) efficiently, selectively, and potently (IC50 ∼100 nM). The CN class of peptides, derived from the inhibitory region of CaM-KIIN, provides powerful new tools to study CaMKII functions. The goal of this study was to identify the residues required for CaMKII inhibition, and to assess if artificial mutations could further improve the potency achieved during evolution. Methodology/Principal Findings First, the minimal region with full inhibitory potency wa ...

B1: CaM-KIIN: natural CaMKII inhibitor protein expressed in brain (protein, UniProt Q7Z7J9 1-78, looked up)
Calcium/calmodulin-dependent …: MSEVLPYGDEKLSPYGDGGDVGQIFSCRLQDTNNFFGAGQNKRPPKLGQIGRSKRVVIEDDRIDDVLKNMTDKAPPGV
  IC50: ~100 nM
